The values that follow are results of earlier work, collected in publication PMC3436762.

For this data set, the target named is TRAIL (Homo sapiens) (UniProt P50591). The following applies: cited from earlier work.
UniProt P50591, sequence (P50591 whole entry): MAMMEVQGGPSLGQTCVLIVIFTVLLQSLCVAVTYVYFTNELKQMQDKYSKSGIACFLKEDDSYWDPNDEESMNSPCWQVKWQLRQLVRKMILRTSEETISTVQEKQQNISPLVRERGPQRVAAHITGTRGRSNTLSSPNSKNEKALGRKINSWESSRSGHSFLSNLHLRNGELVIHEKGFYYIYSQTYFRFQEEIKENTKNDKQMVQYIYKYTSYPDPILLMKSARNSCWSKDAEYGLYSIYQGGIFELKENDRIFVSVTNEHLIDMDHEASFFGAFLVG

On to osteoprotegerin (from UniProt O00300), for which the dissociation constant (Kd) was 400 nM.
